Assay results from article PMC6960015 (Nature cell biology, 2019).

Molecular target: Rabbit skeletal muscle LatB-actin (rabbit, UniProt P68135 1-377)
Experiment: BLI

Kd: 40.3 nM
B1: GST-ArhGAP12 ΔNΔP (568-791) (domain or fragment)
chain: QKKTKKNLKKFLTRRPTLQAVREKGYIKDQVFGSNLANLCQRENGTVPKFVKLCIEHVEEHGLDVDGIYRVSGNLAVIQKLRFAVNHDEKLDLNDSKWEDIHVITGALKMFFRELPEPLFTFNHFNDFVNAIKQEPRQRVTAVKDLIRQLPKPNQDTMQILFRHLKRVIENGEKNRMTYQSIAIVFGPTLLKPERETGNIAVHTVYQNQIVELILLELSTVFGR
